Assay results taken from patent US20250235504A1, “ENHANCEMENT OF CD47 BLOCKADE WITH TAXANES FOR CD47+ CANCER THERAPY” (Pfizer Inc., priority 2021, published 2025).

How the values were obtained:
human CD47 (human) = human CD47 (human) (UniProt Q08722); assay: cell-based or functional assay
[1] = test system: human B cell lymphoma cell line (Toledo); assay: Macrophage phagocytosis assay with VPD450-labeled Toledo cells (flow cytometry); format: cell-based; details: two hours co-culture, FIG. 1
Source text: Heparinized whole blood was obtained from normal healthy human donors (Biological Specialty Corporation) and informed consent was obtained from all donors. Peripheral blood mononuclear cells (PBMCs) were isolated over Ficoll-Paque Plus density gradient (GE Healthcare) and CD14+ monocytes were isolated from PBMCs by positive selection using CD14 antibody-coated MicroBead separation (Miltenyi Biotec). Monocytes were differentiated into macrophages by culturing for seven days in X-Vivo-15 media (Lonza) supplemented with M-CSF (PeproTech), at which point paclitaxel was added to the macrophage culture for an additional six days. On the day of the phagocytosis assay, macrophages were co-cultured with violet proliferation dye 450 (VPD450)-labeled human B cell lymphoma cell line (Toledo) in the presence of 1 μM human SIRPαFc (IgV domain of human SIRPα variant 2 fused with IgG1 Fc), 1 μM control Fc [human IgG1 Fc region (hinge-CH2-CH3)] or nothing (no treatment, NT) for two hours. Phagocytosis was assessed as % VPD450+ cells of live, single CD14+CD11b+ macrophages by flow cytometry. Results are shown in FIG. 1 and are duplicates from a single experiment.

Sequence of UniProt Q08722 (Q08722 19-323): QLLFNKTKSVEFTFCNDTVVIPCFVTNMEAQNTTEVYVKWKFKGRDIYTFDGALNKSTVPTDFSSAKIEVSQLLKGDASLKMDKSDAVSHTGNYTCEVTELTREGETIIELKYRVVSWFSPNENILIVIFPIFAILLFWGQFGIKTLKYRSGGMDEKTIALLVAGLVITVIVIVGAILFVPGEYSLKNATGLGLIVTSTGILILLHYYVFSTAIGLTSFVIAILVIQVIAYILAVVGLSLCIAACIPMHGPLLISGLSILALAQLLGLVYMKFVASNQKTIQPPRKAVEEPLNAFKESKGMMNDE

| % phagocytosis (% VPD450+ cells of live, single CD14+CD11b+ macrophages) of Toledo cells, 1 µM SIRPαFc, macrophages cultured in paclitaxel (human CD47 (human)) [%] | % phagocytosis (% VPD450+ cells of live, single CD14+CD11b+ macrophages) of Toledo cells, 1 µM SIRPαFc, macrophages not cultured in paclitaxel (human CD47 (human)) [%] | Substance | % phagocytosis (% VPD450+ cells of live, single CD14+CD11b+ macrophages) ([1]; 1 μM SIRPαFc, "no treatment" macrophages (not cultured in paclitaxel)) | phagocytosis of the VPD450-labeled B cell lymphoma cells (in words) ([1]; 1 μM protein) |
| --- | --- | --- | --- | --- |
| 15 | 9 | human SIRPαFc (IgV domain of human SIRPα variant 2 fused with IgG1 Fc) (Fc fusion) | – | – |
| – | – | SIRPαFc: IgV domain of human SIRPα variant 2 fused with IgG1 Fc | around 9% | substantial phagocytosis |
